The target in assay [1] is BTV1 VP5 anchoring domain (ANC) polypeptide, His-tagged (Bluetongue virus serotype 1 (BTV1)). Description: SDS-PAGE without reduction and heating, Coomassie staining.
Assay [2] has as its target BTV1 VP5 H384-6A triple mutant, S-tagged recombinant protein (Bluetongue virus serotype 1 (BTV1)). Description: SDS-PAGE without reduction and heating, Western blot. (In general: In western blotting, separated proteins are transferred to a membrane and probed.)
Assay [3] has as its target BTV1 VP5, wild-type, S-tagged recombinant protein (Bluetongue virus serotype 1 (BTV1)). The assay is described as above.
Assay [4] deals with BTV1 VP5 H385A mutant, S-tagged recombinant protein (Bluetongue virus serotype 1 (BTV1)). The description is as above.

Usually stoichiometry N stands for the number of molecules, sites or subunits per partner or assembly. In the case of “BTV1 VP5 anchoring domain (ANC) polypeptide, His-tagged (domain or fragment)”, in assay [1], the percent trimer was found to be 30% and the stoichiometry N was determined as 3.
As for “BTV1 VP5 H384-6A triple mutant, S-tagged recombinant protein (natural protein)”, in assay [2], the percent trimer was found to be 25% and the stoichiometry N came out at 3.
Consider “BTV1 VP5, wild-type, S-tagged recombinant protein (natural protein)”, for which, in assay [3], the percent trimer worked out at 25% and the stoichiometry N stood at 3.
In the case of “BTV1 VP5 H385A mutant, S-tagged recombinant protein (natural protein)”, in assay [4], the percent trimer worked out at 25% and the stoichiometry N came out at 3.

Values taken from PMC6363992.
